The labels stand for the following.
T1: human IL-23R (hIL-23R), custom construct with C-terminal avi and his tags, biotinylated (human, UniProt Q5VWK5 24-355, limits assumed, enzymatically biotinylated via the avi-tag)
T1 construct: immobilized on streptavidin tips in BLI, labeled target in FACS; also called human IL-23 receptor
T1 sequence (looked up): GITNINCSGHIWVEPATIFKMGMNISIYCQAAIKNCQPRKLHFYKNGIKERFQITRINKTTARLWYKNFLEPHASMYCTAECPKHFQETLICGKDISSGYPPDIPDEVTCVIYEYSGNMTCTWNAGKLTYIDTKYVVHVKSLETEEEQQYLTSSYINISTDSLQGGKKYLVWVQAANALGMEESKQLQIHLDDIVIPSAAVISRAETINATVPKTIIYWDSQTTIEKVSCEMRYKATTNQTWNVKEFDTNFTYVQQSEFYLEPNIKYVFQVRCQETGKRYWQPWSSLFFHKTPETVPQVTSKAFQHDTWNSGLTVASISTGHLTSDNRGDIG

B1: rA11dslf02E (designed binder)
chain: PEPEQFLTELCKKYYEGKLSQPEAVEEIRKYARKWGLEAWKLIWYFMQCVKRDI
B2: rA11dslf02A (designed binder)
chain: MEPEKFLKELCKAYYEGKLSQQEAVEEIRSYAMKWGLEAWMLIWYFMQCVKRDI
B3: rA11dslf02C (designed binder)
chain: B2 chain with M1P, K8S, Q22I, M33R, K34S, M41K
B4: rA11dslf02D (designed binder)
chain: B1 chain with Q5K, T8A, K13A, K30S, I43V, Q48L
B5: rA11dslf02B (designed binder)
chain: MEPEEFLLELCKAYYEGKLSQIEAVEEIRHYARSFGLEAWQLIWYFMQCVKRDI
B6: A03dslf04 (designed binder)
chain: MEEEKCVRELCKKYYEGKLSQPEAVEEIRKCARKKGLEAWKLIWAFMQCVKRDIHHHHHH
notes: E. coli, purified
B7: A05dslf01 (designed binder)
chain: B6 chain with L10Q, G17K, E27I
notes: E. coli, purified
B8: A08dslf03 (designed binder)
chain: B6 chain with C6Y, G17K, C31Y, I43V, Q48E, D53N
notes: E. coli, purified
B9: B03 (designed binder)
chain: NLWQIFYILNTIHKRTGDPTAKKLPKALREAMKKGDEKAMKELAKKALKYIRS
B10: B06 (designed binder)
chain: B9 chain with Q4V, I8L, P25I, R29D, M40T
B11: A03 (designed binder)
chain: MEEEKYVRELVKKYYEGKLSQPEAVEEIRKYARKKGLEAWKLIWAFMQLVKRDI
B12: A08 (designed binder)
chain: B11 chain with G17K, I43V, Q48E, D53N
B13: B04 (designed binder)
chain: B9 chain with I8L, H13I, P25K, M32L, M40V, L48M
B14: B12 (designed binder)
chain: B9 chain with I8V, H13Y, G35N, M40I, L48M
B15: B02 (designed binder)
chain: B9 chain with H13I, P25K, M32T, L48M
B16: B07 (designed binder)
chain: B9 chain with I8M, H13F, P25L, M32T, L48T
B17: B01 (designed binder)
chain: NLWMIFYLLNTIIKRTGDPTAKKLLKALQEALKKYDEKAIKELAKKAMKYIRS
B18: B09 (designed binder)
chain: B9 chain with I8V, H13Y, M32L, G35N, M40T, L48M
B19: B05 (designed binder)
chain: B9 chain with Q4M, I8L, H13F, P25K, R29N, L48T
B20: A07 (designed binder)
chain: B11 chain with V7L, G17K, E27I, I43V
B21: A12 (designed binder)
chain: B11 chain with E3P, G17Q, P22Q, E27I, K41M, I43V
B22: A05 (designed binder)
chain: B11 chain with L10Q, G17K, E27I
B23: A13 (designed binder)
chain: B11 chain with E3P, L10K, A45H
B24: A11 (designed binder)
chain: B11 chain with Q21H, P22Q, E26V, I43V, A45M, D53N
B25: A01 (designed binder)
chain: B11 chain with E3P, V7L, L10K, I43V, A45Y, Q48E
B26: A14 (designed binder)
chain: B11 chain with V7L, G17Q, E27I, I28V, Q48E, D53Y
B27: A04 (designed binder)
chain: B11 chain with Q21H, I43V
B28: A10 (designed binder)
chain: B11 chain with V7L, L10Q, Q21V, P22V, I28V
B29: A02 (designed binder)
chain: B11 chain with V7L, G17Q, Q21H, P22Q, E27I, I43V
B30: A09 (designed binder)
chain: MEEEKYLRELVKKYYEQKLSQPEAVEIIRKYARKKGEEAWYLIWMFMELVKRDI
B31: A06 (designed binder)
chain: B11 chain with E3P, G17K, K41M, I43V, A45H
B32: B10 (designed binder)
chain: NLWVIFYVLNTIIKRTGDPTAKKLVKALQEAMKKWDEKATKELAKKATKYIRS
B33: B11 (designed binder)
chain: B32 chain with V4I, V8Q, V25I, M32N, T40L

A word on the Kd: it is a measure of binding affinity in units of concentration. The term koff denotes a measure of how fast the partners let go of each other. Higher therefore signals fast dissociation. One may read the kon as the second-order rate constant of association. Low readings indicate slower complex formation, high ones faster complex formation.

Numbering of substitutions follows the chain as printed.

One assay deals with T1, human IL-23R (hIL-23R), custom …. Description: yeast display FACS, SIF incubation then labeled hIL-23R, 5-7 rounds. As to the method:
Yeast libraries were first incubated in SIF at 30C, then washed thoroughly and incubated with labeled hIL-23R, and cells retaining the highest binding signal (top 1-5%) were collected by FACS. Two rounds of selection were performed for each library, and the SIF incubation time and/or concentration of proteases were increased from first to second round. […] Indeed in several libraries we saw a large population of Myc-negative, binding-positive cells. In parallel, we performed two rounds of selection for binding to hIL-23R only, without pre-incubation in SIF. […] Best mutations were included in combinatorial libraries, sorted as above for 5-7 rounds after which individual clones were sequenced. Variants present in the final sorts were expressed in E. coli and characterized (SEQ ID NOS: 70-74 and 153-164).
(§1) Yeast strain EBY100 was transformed with each library and vector by electroporation and grow in minimal media selective for the yeast strain (-ura) and the transforming plasmid (-trp).²⁷ Expression was induced with 2% galactose. Surface expression was detected with anti-Myc-FITC (Immunology Consultants Laboratory) conjugate, and binding to biotinylated IL-23R was detected with streptavidin-PE (Invitrogen).
SIF SSM and combinatorial libraries were prepared as follows: after 16-24 hours induction, yeast were spun down, washed with PBSF, resuspended in SIF (recipe described below) at an OD of 2.0, and incubated at 30° C. shaking for 30-90 minutes as noted. After SIF digest, cells were spun down and washed 4 times with 800 uL PBSF, manually aspirating the supernatant each time to ensure complete washing to remove proteases. SIF-treated cells were then treated with target protein as described above.
Regarding B1, the binding result is “binds”.
With B2, the binding result was “binds”.
For the molecule B3, the binding result is reported as “binds”.
In the case of B4, the binding result was “binds”.
Turning to B5, the binding result is on record as “binds”.

For another assay the target is unchanged. Description: biolayer interferometry titration, biotinylated hIL-23R immobilised on streptavidin tips, 1:1 fit. As to the method: Variants were first screened for relative binding to hIL-23R with biolayer interferometry (BLI). hIL-23R was immobilized on the BLI sensor tips and binding to each variant in solution at a constant concentration (50 nM) was measured to qualitatively determine relative performance of the variants. For the best-performing variants, binding constants (KD, including kₒₙ, and koff) were quantitatively determined with BLI titration experiments in triplicate.
Qualitative and quantitative assessment of binding affinity was performed using biolayer interferometry (ForteBio Octet™ […] and associated software for analysis). Enzymatically biotinylated target protein (30 nM) was immobilized on streptavidin-coated sensor tips, then sequentially dipped in wells with: buffer only (baseline), inhibitor in solution (association), and buffer only (dissociation). Kinetic constants were determined from the mathematical fit of a 1:1 binding model.
In turn, B6 gave a Kd of 0.13 nM, a koff of 0.00034 s⁻¹ and an on-rate (kon) of 2.6e+06 M⁻¹ s⁻¹.
Turning to B7, the Kd was 0.46 nM, the koff was found to be 0.00044 s⁻¹ and the kon is 960000 M⁻¹ s⁻¹.
For the molecule B8, the affinity, expressed as Kd, was 0.14 nM; the off-rate (koff) is 0.0002 s⁻¹; the kon was 1.5e+06 M⁻¹ s⁻¹.
In turn, B9 showed an equilibrium dissociation constant (Kd) of 0.14 nM, a koff of 5.6e-05 s⁻¹ and an association rate constant (kon) of 400000 M⁻¹ s⁻¹.
For the molecule B10, the affinity, expressed as Kd, was 0.32 nM; the koff amounted to 0.00011 s⁻¹; the association rate constant (kon) was 350000 M⁻¹ s⁻¹.
Take B11: the dissociation constant Kd is 0.25 nM, the off-rate constant (koff) was 0.00024 s⁻¹ and the on-rate constant (kon) turned out to be 980000 M⁻¹ s⁻¹.
Molecule B12 gave a dissociation constant (Kd) of 0.37 nM, a koff of 0.00028 s⁻¹ and a kon of 770000 M⁻¹ s⁻¹.

For the next assay the target is unchanged. Briefly: yeast display FACS, combinatorial library. Here is the method:
To further enhance affinity, we incorporated mutations previously shown to enhance binding in a combinatorial library that was then sorted for binding hIL-23R to convergence in 6 rounds. The final selection pools were plated on solid media, and individual clones sequenced. 26 unique combinatorial variants appearing in the final selection pool (SEQ ID NOS: 11-24 and 111-122) were selected for expression in E. coli and further biophysical characterization.
as §1
Yeast were then washed with PBSF and incubated for 2-5 minutes with stain solution (1:100 each anti-Myc-FITC and streptavidin-PE), washed, and resuspended for analysis and selection by FACS. FACS consecutive gates were set as follows: (1) cell granularity and size, selecting for yeast cells (BSC vs. FSC); (2) cell morphology, selecting singlets (FSC-height vs. FSC-width); (3) expression, selecting expressors by proxy of the Myc-tag (FITC fluorescence histogram); and (4) binding signal, selecting the top 1-5% relative to total population (PE vs. FITC).
For the molecule B13, the binding result is recorded as “binds”.
In the case of B14, the binding result was “binds”.
Take B15: the binding result was “binds”.
Take B16: the binding result is “binds”.
On to B17, for which the binding result is on record as “binds”.
Same read-out and setting: as for B18, the entry is “binds”; as for B19, “binds”; as for B20, “binds”.
Still for that read-out and setting: as for B21, the entry is “binds”.
Regarding B22, the binding result is recorded as “binds”.
Turning to B23, the binding result is “binds”.
On to B24, for which the binding result is “binds”.
Same read-out and setting: under B25 stands “binds”.
Turning to B26, the binding result is recorded as “binds”.
Take B27: the binding result is “binds”.
As to B28, the binding result is “binds”.
Still for that read-out and setting: as for B29, the entry is “binds”; as for B30, “binds”.
In the case of B31, the binding result was “binds”.
For the molecule B32, the binding result is given as “binds”.
The same measure, in the same setting: under B33 stands “binds”.

The values are drawn from patent US20230357323A1 (University of Washington, published 2023).
